Target: T1, soluble recombinant DSG2 (Homo sapiens, UniProt Q14126)
T1 construct: purchased Leinco Technologies, Inc. (St. Louis, Mo.)
T1 sequence (Q14126 50-609 limits assumed): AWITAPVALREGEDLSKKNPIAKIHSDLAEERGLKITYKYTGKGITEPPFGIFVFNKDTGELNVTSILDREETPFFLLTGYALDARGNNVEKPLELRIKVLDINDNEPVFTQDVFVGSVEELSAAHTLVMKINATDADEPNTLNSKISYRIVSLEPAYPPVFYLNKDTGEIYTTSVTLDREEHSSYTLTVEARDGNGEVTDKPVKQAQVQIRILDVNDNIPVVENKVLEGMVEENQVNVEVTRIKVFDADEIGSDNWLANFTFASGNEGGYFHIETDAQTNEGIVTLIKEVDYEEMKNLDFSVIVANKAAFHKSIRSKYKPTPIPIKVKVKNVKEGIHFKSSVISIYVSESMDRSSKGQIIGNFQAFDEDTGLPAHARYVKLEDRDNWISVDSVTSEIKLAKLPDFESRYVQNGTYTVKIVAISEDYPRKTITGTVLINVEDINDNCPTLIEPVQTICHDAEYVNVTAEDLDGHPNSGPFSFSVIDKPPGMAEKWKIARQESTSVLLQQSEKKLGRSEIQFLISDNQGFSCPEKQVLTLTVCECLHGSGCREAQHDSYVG
Assay: Western blot of dimeric Ad3 fiber knob mutants probed with soluble DSG2
Format: binding
Conditions: purified dimerized knob mutants
Source text: FIG. 1. Residues found to be critically involved in binding to DSG2. A) Shown are the amino acid sequences of the Ad3 and Ad14p1 fiber knob. Beta sheets present in the Ad3 knob (PDB accession number 1H7Z_A) and Ad14 knob (PDB: 3F0Y_A) are indicated by lines. Black arrows indicate residues within the Ad3 fiber knob which, when mutated individually, ablate or reduce binding to DSG2. […] B) Schematic structure of dimeric Ad3 fiber knob mutants. The fiber knob domain and one shaft motif was fused through a flexible linker to a homodimerizing K-coil domain (41). The proteins are self-dimerizing and can be purified by His-Ni-NTA affinity chromatography. C-F) Analysis of binding of dimeric Ad3 fiber knob mutants to soluble DSG2. C and D) Coomassie staining. 10 μg of purified Ad3 fiber knob (unboiled) were loaded per lane. Trimeric forms of the fiber knobs are indicated by an arrow. The gel contained SDS and the loading buffer containing DTT, which caused the disassembly of dimers of trimeric fiber knobs as previously reported (41). E and F): Western blot using soluble recombinant DSG2 as a probe, followed by anti-DSG2-mAb and anti-mouse IgG-HRP. For comparison, JO-1 (0.5 μg/lane) is shown. The Western blots were scanned and signals were quantified.
Mini-PROTEAN precast gels (BIO-RAD, Hercules, Calif.) with 4-15% gradient polyacrylamide were used. A total of […] protein mixed with 2× loading buffer (10 mM Tris-HCl, pH6.8, 200 mM DTT, 4% SDS, 20% glycerol, 0.2% bromophenol blue) was loaded per lane. Samples were either boiled (B) for 5 min or loaded unboiled (UB). The following running buffer was used: 25 mM Tris, pH8.3, 0.192 M glycine, 0.1% SDS. After electrophoresis, proteins were transferred to nitrocellulose and incubated with recombinant human DSG2 protein and anti-DSG2 antibodies as described previously (42). The Western blots were scanned and quantified using the ImageJ 1.32 software (National Institutes of Health, Bethesda, Md.). JO-1 band intensity was set as 100%. […]

B1: D261N (protein)
chain: MKVSALKEKVSALKEKVSALKEKVSALKEKVSALKEGSGGGSGGGSGGGSNSIALKNNTLWTGPKPEANCIIEYGKQNPDSKLTLILVKNGGIVNGYVTLMGASDYVNTLFKNKNVSINVELYFDATGHILPDSSSLKTDLELKYKQTADFSARGFMPSTTAYPFVLPNAGTHNENYIFGQCYYKASNGALFPLEVTVMLNKRLPDSRTSYVMTFLWSLNAGLAPETTQATLITSPFTFSYIREDD
  DSG2 binding in Western blot compared to JO-1: almost completely ablated for DSG2 binding

Source: patent US20150246949A1, “Desmoglein 2 (DSG2) Binding Proteins and Uses Therefor” (UNIVERSITY OF WASHINGTON THROUGH ITS CENTER FOR …, priority 2012, published 2015)
